Assay results as given in patent publication US20190330323A1 (UCB, published 2019).

T1: BMP4/7 heterodimer (human, UniProt P12644 293-408; P18075 293-431)
T1 sequence (looked up) 1: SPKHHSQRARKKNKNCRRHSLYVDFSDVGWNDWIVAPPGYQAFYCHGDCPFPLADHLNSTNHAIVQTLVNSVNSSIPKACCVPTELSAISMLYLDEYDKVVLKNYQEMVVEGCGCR
T1 sequence (looked up) 2: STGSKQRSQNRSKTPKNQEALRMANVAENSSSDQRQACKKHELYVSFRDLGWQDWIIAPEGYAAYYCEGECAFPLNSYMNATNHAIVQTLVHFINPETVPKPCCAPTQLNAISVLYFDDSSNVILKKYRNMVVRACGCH

T2: mouse Gremlin (mouse, UniProt O70326 25-184)
T2 sequence (looked up): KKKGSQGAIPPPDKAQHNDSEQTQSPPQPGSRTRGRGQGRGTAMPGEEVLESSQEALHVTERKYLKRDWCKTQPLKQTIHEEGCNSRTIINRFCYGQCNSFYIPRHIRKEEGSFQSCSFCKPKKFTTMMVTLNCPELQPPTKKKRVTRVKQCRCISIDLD

B1: human Gremlin-1 (recombinant, full length) (ligand)
chain: KKKGSQGAIPPPDKAQHNDSEQTQSPQQPGSRNRGRGQGRGTAMPGEEVLESSQEALHVTERKYLKRDWCKTQPLKQTIHEEGCNSRTIINRFCYGQCNSFYIPRHIRKEEGSFQSCSFCKPKKFTTMMVTLNCPELQPPTKKKRVTRVKQCRCISIDLD

Experiments:
Test in all cases: cell-based or functional assay
BMP4/7 heterodimer [1] = biological target: T1, BMP4/7 heterodimer
BMP4/7 heterodimer [2] = biological target: T1, BMP4/7 heterodimer; remark: listed apart in the source
[3] = biological target: B1
mouse Gremlin = biological target: T2, mouse Gremlin

IC50, Geometric mean (nM), Hek-Id1 reporter gene assay, N = 2 (BMP4/7 heterodimer [1]) [nM]	IC50 (read off the curve) [B] (BMP4/7 heterodimer [2]) [nM]	IC50, restoration of BMP signalling, Hek-Id1 reporter gene assay [3] [nM]	IC50, restoration of BMP signalling, Hek-Id1 reporter gene assay (mouse Gremlin) [nM]	Binder
1.7	~3	–	–	truncated human Gremlin-1 (E. coli, refolded, N-terminal 6His-TEV tag) (ligand) MGSSHHHHHHSSGENLYFQGSAMPGEEVLESSQEALHVTERKYLKRDWCKTQPLKQTIHEEGCNSRTIINRFCYGQCNSFYIPRHIRKEEGSFQSCSFCKPKKFTTMMVTLNCPELQPPTKKKRVTRVKQCRCISIDLD
–	–	1.3	0.2	Ab7326 (as tested in the screening assays of Example 5) (antibody, V domains shown) VH: QVQLVESGAEVKKPGATVKISCKVSGYTFTDYYMHWVQQAPGKGLEWMGLVDPEDGETIYAEKFQGRVTITADTSTDTAYMELSSLRSEDTAVYYCATDARGSGSYYPNHFDYWGQGTLVTVSS VL: not shown
1.6	–	–	–	B1
